Results reported in patent publication US20090075925A1, “Methods and Compositions Related to APOBEC-1 Expression” (priority 2006, published 2009).

B1: S154D: ACF64 with serine 154 to aspartic acid substitution (protein)
chain: MESNHKSGDGLSGTQKEAALRALVQRTGYSLVQENGQRKYGGPPPGWDTTPPERGCEIFIGKLPRDLFEDELIPLCEKIGKIYEMRMMMDFNGNNRGYAFVTFSNKQEAKNAIKQLNNYEIRNGRLLGVCASVDNCRLFVGGIPKTKKREEILDEMKKVTEGVVDVIVYPSAADKTKNRGFAFVEYESHRAAAMARRRLLPGRIQLWGHPIAVDWAEPEVEVDEDTMSSVKILYVRNLMLSTSEEMIEKEFNSIKPGAVERVKKIRDYAFVHFSNREDAVEAMKALNGKVLDGSPIEVTLAKPVDKDSYVRYTRGTGGRNTMLQEYTYPLSHVYDPTTTYLGAPVFYTPQAYAAIPSLHFPATKGHLSNRALIRTPSVRGAAGVRGLGGRGYLAYTGLGRGYQVKGDKRQDKLYDLLPGMELTPMNTISLKPQGVKLAPQILEEICQKNNWGQPVYQLHSAIGQDQRQLFLYKVTIPALASQNPAIHPFTPPKLSAYVDEAKRYAAEHTLQTLGIPTEGGDAGTTAPTATSATVFPGYAVPSATAPVSTAQLKQAVTLGQDLAAYTTYEVYPTFAVTTRGDGYGTF
B2: ACF64: 64 kDa ACF variant, SEQ ID NO:1 (protein)
chain: MESNHKSGDGLSGTQKEAALRALVQRTGYSLVQENGQRKYGGPPPGWDAAPPERGCEIFIGKLPRDLFEDELIPLCEKIGKIYEMRMMMDFNGNNRGYAFVTFSNKVEAKNAIKQLNNYEIRNGRLLGVCASVDNCRLFVGGIPKTKKREEILSEMKKVTNEGVVDVIVYPSAADKTKNRGFAFVEYESHRTAAMARRKLLPGRIQLWGHGIAVDWAEPEVEVDEDTMSSVKILYVRNLMLSTSEEMIEKEFNNIKPGAVERVKKIRDYAFVHFSNRKDAVEAMKALNGKVLDGSPIEVTLAKPVDKDSYVRYTRGTGGRGTMLQGEYTYSLGQVYDPTTTYLGAPVFYAPQTYAAIPSLHFPATKGHLSNRAIIRAPSVRGAAGVRGLGGRGYLAYTGLGRGYQVKGDKREDKLYDILPGMELTPMNPVTLKPQGIKLAPQILEEICQKNNWGQPVYQLHSAIGQDQRQLFLYKITIPALASQNPAIHPFTPPKLSAFVDEAKTYAAENYTLQTLGIPTDGGDGTMATAAAAATAFPGYAVPNATAPVSAAQLKQAVTLGQDLAAYTNTYEVYPTFAVTARGDGYGTF
B3: ACF43: 43 kDa ACF variant, SEQ ID NO:19 (protein)
chain: MESNHKSGDGLSGTQKEAALRALVQRTGYSLVQENGQRKYGGPPPGWDAAPPERGCEIFIGKLPRDLFEDELIPLCEKIGKIYEMRMMMDFNGNNRGYAFVTFSNKVEAKNAIKQLNNYEIRNGRLLGVCASVDNCRLFVGGIPKTKKREEILSEMKKVTEGVVDVIVYPSAADKTKNRGFAFVEYESHRAAAMARRKLLPGRIQLWGHGIAVDWAEPEVEVDEDTMSSVKILYVRNLMLSTSEEMIEKEFNNIKPGAVERVKKIRDYAFVHFSNRKDAVEAMKALNGKVLDGSPIEVTLAKPVDKDSYVRYTRGTGGRGTMLQGEYTYSLGQVYDPTTTYLGAPVFYAPQTYAAIPSLHFPATKGHLSNRAIIRAPSVRGAAGVRGLGGRGYLAYTGLGRGYQVKGDKREDKLYDILPGMELTPMNPVTLKPQGIKLAPQILEEICQKNNWGQPVYQLHSAIGQDQRQLFLYKITIPALASQNPAIHPFTPPKLSAFVDEAKTYAAEYTLQTLGIPTDGGDGTMATAAAAATAFPGYAVPNATAPVSAAQLKQAVTLGQDLAAYTTYEVYPTFAVTARGDGYGTF
B4: ACF45: 45 kDa ACF variant, SEQ ID NO:18 (protein)
chain: B3 chain

Columns and labels:
[1] = tested on: apoB mRNA editing; assay: apoB mRNA editing in McArdle cells (ethanol, ACF wild type, mutants and isoforms); assay type: cell-based, rat; details: for effect of isoform expression on editing: HA-tagged, transfected McArdle cells
Experimental: McArdle RH7777 cells (ATCC Manassas, Va.) stably expressing HA epitope-tagged APOBEC-1 (Yang et al. J Biol Chem 272:27700-6 (1997)) were treated for 4 hours with 0.9% ethanol and fractionated into nuclear extracts (Van Mater et al. (1998)).
To calibrate the system cells were incubated in the presence of ethanol for 4 hours and the amount of edited apoB mRNA determined.
The overall expression and subcellular localization of epitope tagged ACF isoforms is established by western blotting of nuclear and cytoplasmic extracts (prepared using NE-PER system; Pierce). These biochemical studies are complemented by immunofluorescence microscopy of paraformaldehyde fixed cells reacted with epitope tag or ACF isoform-specific antibodies. In pilot experiments varying levels of HA-tagged ACF43 and ACF45 were expressed by transfecting differing amounts of cDNA into McArdle or McAPOBEC cells (FIGS. 35A & C, western blots). […] The above transient transfection scenarios can be recapitulated in ethanol treated cells to evaluate the affect of ACF isoform abundance on cells ability to respond to metabolic perturbation. […] ACF expression levels, subcellular localization and editing activity are determined from replicate experiments and the relative affects of overexpressing each isoform compared in the absence (negative control) or presence of ethanol and to the response seen in wild type cells (positive control).

[2] = tested on: apoB mRNA editing; assay: apoB mRNA editing in McAPOBEC cells transfected with ACF isoforms; assay type: cell-based, rat; details: HA-tagged
Source text: The overall expression and subcellular localization of epitope tagged ACF isoforms is established by western blotting of nuclear and cytoplasmic extracts (prepared using NE-PER system; Pierce). These biochemical studies are complemented by immunofluorescence microscopy of paraformaldehyde fixed cells reacted with epitope tag or ACF isoform-specific antibodies. In pilot experiments varying levels of HA-tagged ACF43 and ACF45 were expressed by transfecting differing amounts of cDNA into McArdle or McAPOBEC cells (FIGS. 35A & C, western blots). The level of exogenously expressed HA-tagged APOBEC-1 in McAPOBEC cells was high and unaffected by ACF isoform expression (FIG. 35C). Sufficient endogenous ACF was expressed in McAPOBEC cells to support 61% editing (FIG. 35D, poisoned primer extension) given the level of APOBEC-1 overexpression (FIG. 35C). […] ACF43's facilitation of ACF64/65 binding to apoB mRNA enhanced editing activity only when APOBEC-1 abundance was not rate limiting (analogous to FIG. 34, insulin). […] ACF expression levels, subcellular localization and editing activity are determined from replicate experiments and the relative affects of overexpressing each isoform compared in the absence (negative control) or presence of ethanol and to the response seen in wild type cells (positive control).

Row | Molecule | enhancement of editing ([1]; stable McArdle cell line) [%] | stimulation of editing by stable ectopic expression compared to untransfected McArdle cells ([1]; stable cell line) [%] | further stimulation of editing on addition of ethanol ([1]; stable cell line, ethanol) [fold] | effect of isoform expression on editing (61% editing without) [2] | effect of isoform expression on editing [1]
1 | B1 | 67 |  |  |  | 
2 | B2 |  | 19 | 3 |  | 
3 | B3 |  |  |  | stimulated editing activity | did not affect editing
4 | B4 |  |  |  | had no affect | inhibited editing over two-fold
